Assay results as given in paper PMC3469418 (2012).
Where two headings read alike, the source gives them in different places.

B1: GST-CortoCD (Corto chromodomain fused to GST) (domain or fragment)
chain: TASSNSNAAPAPSPQKDYSIPLHVDCSVEYELPNQPKPPAGQRVEPLLMIHPCYFRKMESQRRSPFVNNMHATARAV
B2: GST-HP1CD (HP1 chromodomain fused to GST) (domain or fragment)
chain: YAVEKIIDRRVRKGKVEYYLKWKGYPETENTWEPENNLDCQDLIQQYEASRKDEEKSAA

Key:
Test in all cases: SPR
[1] = target: RPL12 peptide dimethylated on lysine 3 (D. melanogaster, UniProt Q9W1B9, dimethyl-lysine at 3 (K3me2))
[2] = target: T1, RPL12 peptide trimethylated on lysine 3 (D. melanogaster, UniProt Q9W1B9, trimethyl-lysine at 3 (K3me3))
[3] = target: T2, RPL12 unmodified peptide (D. melanogaster, UniProt Q9W1B9)
[4] = target: T1, RPL12 peptide trimethylated on lysine 3; remark: listed apart in the source
[5] = target: T2, RPL12 unmodified peptide; remark: listed apart in the source

| Binder | Kd [1] | koff [1] | koff [2] | Kd [3] | koff [3] | Kd [4] | Kd [5] |
| --- | --- | --- | --- | --- | --- | --- | --- |
| B1 | 238 µM | 0.00099 s⁻¹ | 0.00082 s⁻¹ | 624 µM | 0.00076 s⁻¹ |  |  |
| B2 |  |  |  |  |  | 292 µM | > 1000 µM |
